Experiment: western blot, co-transfected HEK293T
Details: glycan lost; control: Flag-GPNMB (WT)

B1: glycoprotein nonmetastatic melanoma protein B (GPNMB): GPNMB296Q (protein)
parent chain: MECLYYFLGFLLLAARLPLDAAKRFHDVLGNERPSAYMREHNQLNGWSSDENDWNEKLYPVWKRGDMRWKNSWKGGRVQAVLTSDSPALVGSNITFAVNLIFPRCQKEDANGNIVYEKNCRNEAGLSADPYVYNWTAWSEDSDGENGTGQSHHNVFPDGKPFPHHPGWRRWNFIYVFHTLGQYFQKLGRCSVRVSVNTANVTLGPQLMEVTVYRRHGRAYVPIAQVKDVYVVTDQIPVFVTMFQKNDRNSSDETFLKDLPIMFDVLIHDPSHFLNYSTINYKWSFGDNTGLFVSTNHTVNHTYVLNGTFSLNLTVKAAAPGPCPPPPPPPRPSKPTPSLATTLKSYDSNTPGPAGDNPLELSRIPDENCQINRYGHFQATITIVEGILEVNIIQMTDVLMPVPWPESSLIDFVVTCQGSIPTEVCTIISDPTCEITQNTVCSPVDVDEMCLLTVRRTFNGSGTYCVNLTLGDDTSLALTSTLISVPDRDPASPLRMANSALISVGCLAIFVTVISLLVYKKHKEYNPIENSPGNVVRSKGLSVFLNRAKAVFFPGNQEKDPLLKNQEFKGVS
- other: SNAP29 protein level: decreases
